The values below come from article PMC5726920.

For experiment [1], the target named is 10 kDa heat shock protein. The experiment is described as follows: native MS.
Experiment [2] deals with triosephosphate isomerase, isoform 2, initiator methionine removed. The experiment is described as follows: native MS.

Sequence of triosephosphate isomerase, isoform 2, initiator methionine removed (enzyme) (P60174 2-249): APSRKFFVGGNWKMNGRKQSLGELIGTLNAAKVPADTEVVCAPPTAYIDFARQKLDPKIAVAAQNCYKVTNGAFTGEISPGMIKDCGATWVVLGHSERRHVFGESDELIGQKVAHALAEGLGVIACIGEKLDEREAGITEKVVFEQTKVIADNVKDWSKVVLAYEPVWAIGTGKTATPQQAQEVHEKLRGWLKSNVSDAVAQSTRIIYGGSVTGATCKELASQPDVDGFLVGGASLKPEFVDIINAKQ

Broadly, the stoichiometry N is the number of molecules, sites or subunits per partner or assembly. In experiment [1], “10 kDa heat shock protein (natural protein)” returned a stoichiometry N of 7.

As to “triosephosphate isomerase, isoform 2, initiator methionine removed (enzyme)”, in experiment [2], the stoichiometry N came out at 2.
